What was measured:
[1] = molecular target: T1, E47 (Homo sapiens, UniProt P15923); test: Effect on the transcriptional activity of E47; format: cell-based
T1 sequence (P15923 1-651 isoform P15923-2): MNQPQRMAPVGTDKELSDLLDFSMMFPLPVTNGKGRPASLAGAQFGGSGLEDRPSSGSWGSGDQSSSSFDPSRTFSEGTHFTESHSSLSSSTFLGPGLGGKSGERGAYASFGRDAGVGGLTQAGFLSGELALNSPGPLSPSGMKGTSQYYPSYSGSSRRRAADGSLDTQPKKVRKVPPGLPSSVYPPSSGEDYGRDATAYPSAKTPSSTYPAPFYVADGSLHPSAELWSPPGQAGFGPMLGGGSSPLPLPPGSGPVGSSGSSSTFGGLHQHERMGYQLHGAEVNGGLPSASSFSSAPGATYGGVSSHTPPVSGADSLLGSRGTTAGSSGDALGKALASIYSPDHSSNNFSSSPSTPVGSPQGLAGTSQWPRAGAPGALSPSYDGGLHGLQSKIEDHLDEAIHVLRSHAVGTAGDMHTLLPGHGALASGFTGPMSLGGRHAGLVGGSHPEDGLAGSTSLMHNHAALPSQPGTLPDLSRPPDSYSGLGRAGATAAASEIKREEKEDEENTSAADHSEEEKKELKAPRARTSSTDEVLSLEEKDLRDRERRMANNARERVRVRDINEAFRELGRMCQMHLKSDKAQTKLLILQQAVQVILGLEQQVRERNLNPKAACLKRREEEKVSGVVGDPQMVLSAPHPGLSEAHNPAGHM

[2] = molecular target: human progesterone receptor B isoform (hPRB) (human) (UniProt P06401); test: cell-based or functional assay
[3] = molecular target: T2, GR (Homo sapiens, UniProt P04150); test: CAT reporter assay GR/PRE2-TATA-CAT in HeLa cells; format: cell-based; settings: 3 μg SRC-1, dexamethasone 2×10^−8 M
T2 construct: expressed in transfected cells; host or cells: HeLa
T2 sequence (P04150 1-777): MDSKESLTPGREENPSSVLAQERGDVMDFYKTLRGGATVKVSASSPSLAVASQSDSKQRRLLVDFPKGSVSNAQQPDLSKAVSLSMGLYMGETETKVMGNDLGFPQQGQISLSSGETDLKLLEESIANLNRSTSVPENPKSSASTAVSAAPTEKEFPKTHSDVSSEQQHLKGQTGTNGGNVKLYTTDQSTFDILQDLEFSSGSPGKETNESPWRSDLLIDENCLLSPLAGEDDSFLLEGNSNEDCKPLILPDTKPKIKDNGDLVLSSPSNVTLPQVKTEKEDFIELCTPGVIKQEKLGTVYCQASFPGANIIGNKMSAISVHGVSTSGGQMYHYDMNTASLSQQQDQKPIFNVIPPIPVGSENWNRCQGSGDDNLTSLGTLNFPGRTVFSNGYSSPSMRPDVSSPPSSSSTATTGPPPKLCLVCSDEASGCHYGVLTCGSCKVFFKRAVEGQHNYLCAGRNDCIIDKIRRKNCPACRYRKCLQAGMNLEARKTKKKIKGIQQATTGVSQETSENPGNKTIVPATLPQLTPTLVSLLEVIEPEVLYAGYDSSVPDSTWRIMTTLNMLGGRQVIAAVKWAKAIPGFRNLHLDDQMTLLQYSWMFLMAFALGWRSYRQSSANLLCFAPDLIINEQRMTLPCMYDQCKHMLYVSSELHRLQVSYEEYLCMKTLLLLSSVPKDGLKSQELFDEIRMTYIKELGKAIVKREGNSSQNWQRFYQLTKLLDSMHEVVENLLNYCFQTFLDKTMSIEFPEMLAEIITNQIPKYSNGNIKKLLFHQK
Procedure: Biol. 13, 6501-6508), Sp1 and Sp1-tk-CAT (Courey, A. J. and Tjian, R. (1988), Cell 55, 887-898), CREB and CRE-tk-CAT (Chrivia, J. C. et al., (1993), Nature 365, 855) and GAL4VP16 and 17mer-tk-CAT (Baniahmad, A. et al., (1992), EMBO J. 11, 1015-1023) have been previously described and the above references are incorporated herein by reference in their entirety, including any drawings.
Lipofectin (GibcoBRL) was selected for transfection of Hela cells.
HeLa cells were cotransfected with 0.5 μg of cDNAs encoding various steroid receptors indicated and 5 μg of their cognates HREs containing reporters, including PR/PRE2-TATA-CAT, ER/ERE2-TATA-CAT, GR/PRE2-TATA-CAT, TR-/DR4-tk-CAT and RXR/DR1-tk-CAT, along with 3 μg of SRC-1 or empty expression vector. Cells were then treated with their corresponding ligands (PR:R5020, ER:estradiol, GR:dexamethasone, TR:Triac, RXR:9-cis retinoic acid) at a concentration of 2×10^−8M. The CAT activity of the reporter was determined using 14 μg of protein extract.

B1: steroid receptor coactivator-one (SRC-1), full-length (protein)
chain: MSIPRVNPSVNPSISPAHGVARSSTLPPSNSNMVSTRINRQQSSDLHSSSHSNSSNSQGSFGCSPGSQIVANVALNKGQASSQSSKPSLNLNNPPMEGTGISLAQFMSPRRQVTSGLATRPRMPNNSFPPNISTLSSPVGMTSSACNNNNRSYSNIPVTSLQGMNEGPNNSVGFSASSPVLRQMSSQNSPSRLNIQPAKAESKDNKEIASTLNEMIQSDNSSSDGKPLDSGLLHNNDRLSDGDSKYSQTSHKLVQLLTTTAEQQLRHADIDTSCKDVLSCTGTSNSASANSSGGSCPSSHSSLTARHKILHRLLQEGSPSDITTLSVEPDKKDSASTSVSVTGQVQGNSSIKLELDASKKKESKDHQLLRYLLDKDEKDLRSTPNLSLDDVKVKVEKKEQMDPCNTNPTPMTKATPEEIKLEAQSQFTADLDQFDQLLPTLEKAAQLPGLCETDRMDGAVTSVTIKSEILPASLQSATARPTSRLNRLPELELEAIDNQFGQPGTGDQIPWTNNTVTAINQSKSEDQCISSQLDELLCPPTTVEGRNDEKALLEQLVSFLSGKDETELAELDRALGIDKLVQGGGLDVLSERFPPQQATPPLIMEERPNLYSQPYSSPFPTANLPSPFQGMVRQKPSLGTMPVQVTPPRGAFSPGMGMQPRQTLNRPPAAPNQLRLQLQQRLQGQQQLIHQNRQAILNQFAATAPVGINMRSGMQQQITPQPPLNAQMLAQRQRELYSQQHRQRQLIQQQRAMLMRQQSFGNNLPPSSGLPVQTGNPRLPQGAPQQFPYPPNYGTNPGTPPASTSPFSQLAANPEASLANRNSMVSRGMTGNIGGQFGTGINPQMQQNVFQYPGAGMVPQGEANFAPSLSPGSSMVPMPIPPPQSSLLQQTPPASGYQSPDMKAWQQGAIGNNNVFSQAVQNQPTPAQPGVYNNMSITVSMAGGNTNVQNMNPMMAQMQMSSLQMPGMNTVCPEQINDPALRHTGLYCNQLSSTDLLKTEADGTQQVQQVQVFADVQCTVNLVGGDPYLNQPGPLGTQKPTSGPQTPQAQQKSLLQQLLTE
[1]
  effect on E47 transcriptional activity: did not alter
[2]
  fold induction of PRE2-TATA-CAT reporter activity over the hormone-induced receptor activity (HeLa cells, R5020): 14 fold
  reversal of hER squelching of hPR-mediated CAT reporter activity (HeLa cells): 16 fold
  stimulation of PR transactivation at the highest concentration of SRC-1 (2 µg), CAT reporter: 5 fold
[3]
  effect on GR transcriptional activity: enhance

From patent publication US6380373B1, “Steroid receptor coactivator compositions and methods of use” (Baylor College of Medicine, priority 1995, dated 2002)
